Patent US20120238493A1 (INDIANA UNIVERSITY RESEARCH AND TECHNOLOGY, published 2012)
Like-named read-outs stand apart in the source and are kept apart here. *1 amine or outer side, *2 acyl side, *3 side chain or, on linkers, in order; H or OH if unused. Bridges are numbered along the chain shown (N, C = ends). Where no end group is shown, it is not given here. Side-chain parts run from the residue outwards. [ ]: non-standard residue; d: D form. The star is where a group is joined. γGlu = O=C(O)[C@H](CCC(=O)[*:2])N[*:1]; Palmitoyl = CCCCCCCCCCCCCCCC(=O)*; Aib = CC(C)(N)C(=O)O

T1: GIP receptor (UniProt P48546 22-466, limits assumed)
T1 sequence (looked up): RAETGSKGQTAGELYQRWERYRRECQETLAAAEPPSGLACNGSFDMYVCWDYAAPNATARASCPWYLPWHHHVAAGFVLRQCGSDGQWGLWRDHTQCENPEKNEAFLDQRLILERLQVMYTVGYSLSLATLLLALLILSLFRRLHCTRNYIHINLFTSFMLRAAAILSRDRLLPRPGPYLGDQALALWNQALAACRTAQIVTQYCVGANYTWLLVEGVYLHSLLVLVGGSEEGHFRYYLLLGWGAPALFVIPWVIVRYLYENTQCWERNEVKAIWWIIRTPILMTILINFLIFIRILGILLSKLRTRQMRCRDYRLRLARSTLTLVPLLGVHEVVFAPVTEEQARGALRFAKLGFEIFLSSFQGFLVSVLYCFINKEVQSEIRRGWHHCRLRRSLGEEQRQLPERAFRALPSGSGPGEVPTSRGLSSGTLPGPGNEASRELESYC

B1: mt-405 (SEQ ID NO: 14) (peptide)
peptide: Y[Aib]QGTFTSDYSKYLDEIHQKDFVNWLLAQ-NH2
modifications: not fully specified (residue 20)
B2: peptide of SEQ ID NO: 90 (peptide)
peptide: H[Aib]QGTFTSDK([γGlu-γGlu-Palmitoyl])SKYLDERAAQDFVQWLLDGGPSSGAPPPS-NH2
modifications: N-terminus assumed
SMILES: CCCCCCCCCCCCCCCC(=O)N[C@@H](CCC(=O)N[C@@H](CCC(=O)NCCCC[C@H](NC(=O)[C@H](CC(=O)O)NC(=O)[C@H](CO)NC(=O)[C@@H](NC(=O)[C@H](Cc1ccccc1)NC(=O)[C@@H](NC(=O)CNC(=O)[C@H](CCC(N)=O)NC(=O)C(C)(C)NC(=O)[C@@H](N)Cc1c[nH]cn1)[C@@H](C)O)[C@@H](C)O)C(=O)N[C@@H](CO)C(=O)N[C@@H](CCCCN)C(=O)N[C@@H](Cc1ccc(O)cc1)C(=O)N[C@@H](CC(C)C)C(=O)N[C@@H](CC(=O)O)C(=O)N[C@@H](CCC(=O)O)C(=O)N[C@@H](CCCNC(=N)N)C(=O)N[C@@H](C)C(=O)N[C@@H](C)C(=O)N[C@@H](CCC(N)=O)C(=O)N[C@@H](CC(=O)O)C(=O)N[C@@H](Cc1ccccc1)C(=O)N[C@H](C(=O)N[C@@H](CCC(N)=O)C(=O)N[C@@H](Cc1c[nH]c2ccccc12)C(=O)N[C@@H](CC(C)C)C(=O)N[C@@H](CC(C)C)C(=O)N[C@@H](CC(=O)O)C(=O)NCC(=O)NCC(=O)N1CCC[C@H]1C(=O)N[C@@H](CO)C(=O)N[C@@H](CO)C(=O)NCC(=O)N[C@@H](C)C(=O)N1CCC[C@H]1C(=O)N1CCC[C@H]1C(=O)N1CCC[C@H]1C(=O)N[C@@H](CO)C(N)=O)C(C)C)C(=O)O)C(=O)O
B3: peptide of SEQ ID NO: 92 (peptide)
peptide: Y[Aib]QGTFTSDK([γGlu-γGlu-Palmitoyl])SIYLDKQAA[Aib]EFVNWLLDT-NH2
modifications: N-terminus assumed
SMILES: CCCCCCCCCCCCCCCC(=O)N[C@@H](CCC(=O)N[C@@H](CCC(=O)NCCCC[C@H](NC(=O)[C@H](CC(=O)O)NC(=O)[C@H](CO)NC(=O)[C@@H](NC(=O)[C@H](Cc1ccccc1)NC(=O)[C@@H](NC(=O)CNC(=O)[C@H](CCC(N)=O)NC(=O)C(C)(C)NC(=O)[C@@H](N)Cc1ccc(O)cc1)[C@@H](C)O)[C@@H](C)O)C(=O)N[C@@H](CO)C(=O)N[C@H](C(=O)N[C@@H](Cc1ccc(O)cc1)C(=O)N[C@@H](CC(C)C)C(=O)N[C@@H](CC(=O)O)C(=O)N[C@@H](CCCCN)C(=O)N[C@@H](CCC(N)=O)C(=O)N[C@@H](C)C(=O)N[C@@H](C)C(=O)NC(C)(C)C(=O)N[C@@H](CCC(=O)O)C(=O)N[C@@H](Cc1ccccc1)C(=O)N[C@H](C(=O)N[C@@H](CC(N)=O)C(=O)N[C@@H](Cc1c[nH]c2ccccc12)C(=O)N[C@@H](CC(C)C)C(=O)N[C@@H](CC(C)C)C(=O)N[C@@H](CC(=O)O)C(=O)N[C@H](C(N)=O)[C@@H](C)O)C(C)C)[C@@H](C)CC)C(=O)O)C(=O)O
B4: mt-402 (SEQ ID NO: 11) (peptide)
peptide: Y[Aib]QGTFTSDYSIYLDKKAA[Aib]EFVNWLLAGGPSSGAPPPSK-NH2
B5: peptide of SEQ ID NO: 212 (peptide)
peptide: H[Aib]QGTFTSDYSKYLDERAAQDFVQWLLDGGPSSGAPPPSY(Palmitoyl)G-NH2
modifications: also: Y40 O-2palmitic acid, exact structure not given here
B6: mt-398 (SEQ ID NO: 18) (peptide)
peptide: YSQGTFTSDYSKYLDEQAAKEFIAWLMNGGPSSGAPPPS-NH2
modifications: lactam 16-20; N-terminus assumed
SMILES: CC[C@H](C)[C@H](NC(=O)[C@H](Cc1ccccc1)NC(=O)[C@H](CCC(=O)O)NC(=O)[C@@H]1CCCCNC(=O)CC[C@H](NC(=O)[C@H](CC(=O)O)NC(=O)[C@H](CC(C)C)NC(=O)[C@H](Cc2ccc(O)cc2)NC(=O)[C@H](CCCCN)NC(=O)[C@H](CO)NC(=O)[C@H](Cc2ccc(O)cc2)NC(=O)[C@H](CC(=O)O)NC(=O)[C@H](CO)NC(=O)[C@@H](NC(=O)[C@H](Cc2ccccc2)NC(=O)[C@@H](NC(=O)CNC(=O)[C@H](CCC(N)=O)NC(=O)[C@H](CO)NC(=O)[C@@H](N)Cc2ccc(O)cc2)[C@@H](C)O)[C@@H](C)O)C(=O)N[C@@H](CCC(N)=O)C(=O)N[C@@H](C)C(=O)N[C@@H](C)C(=O)N1)C(=O)N[C@@H](C)C(=O)N[C@@H](Cc1c[nH]c2ccccc12)C(=O)N[C@@H](CC(C)C)C(=O)N[C@@H](CCSC)C(=O)N[C@@H](CC(N)=O)C(=O)NCC(=O)NCC(=O)N1CCC[C@H]1C(=O)N[C@@H](CO)C(=O)N[C@@H](CO)C(=O)NCC(=O)N[C@@H](C)C(=O)N1CCC[C@H]1C(=O)N1CCC[C@H]1C(=O)N1CCC[C@H]1C(=O)N[C@@H](CO)C(N)=O
B7: mt-403 (SEQ ID NO: 12) (peptide)
peptide: HSQGTFISDYSKYLDEIHQKEFIAWLMNT-NH2
modifications: lactam 16-20; not fully specified (residue 2); also: AIB at position 2 and position 20 (given S and K), any further modification only
B8: mt-263 (SEQ ID NO: 10) (peptide)
peptide: Y[Aib]EGTFTSDYSIYLDKQAA[Aib]EFVNWLLAGGPSSGAPPPSK-NH2
B9: mt-404 (SEQ ID NO: 13) (peptide)
peptide: HSQGTFISDYSKALDEIHQKEFIAWLMNT-NH2
modifications: lactam 16-20; not fully specified (residue 2); also: AIB at position 2 and position 20 (given S and K), any further modification only
B10: peptide of SEQ ID NO: 91 (peptide)
peptide: Y[Aib]QGTFTSDK([γGlu-γGlu-Palmitoyl])SIYLDKQAA[Aib]EFVNWLLDGGPSSGAPPPS-NH2
modifications: N-terminus assumed
SMILES: CCCCCCCCCCCCCCCC(=O)N[C@@H](CCC(=O)N[C@@H](CCC(=O)NCCCC[C@H](NC(=O)[C@H](CC(=O)O)NC(=O)[C@H](CO)NC(=O)[C@@H](NC(=O)[C@H](Cc1ccccc1)NC(=O)[C@@H](NC(=O)CNC(=O)[C@H](CCC(N)=O)NC(=O)C(C)(C)NC(=O)[C@@H](N)Cc1ccc(O)cc1)[C@@H](C)O)[C@@H](C)O)C(=O)N[C@@H](CO)C(=O)N[C@H](C(=O)N[C@@H](Cc1ccc(O)cc1)C(=O)N[C@@H](CC(C)C)C(=O)N[C@@H](CC(=O)O)C(=O)N[C@@H](CCCCN)C(=O)N[C@@H](CCC(N)=O)C(=O)N[C@@H](C)C(=O)N[C@@H](C)C(=O)NC(C)(C)C(=O)N[C@@H](CCC(=O)O)C(=O)N[C@@H](Cc1ccccc1)C(=O)N[C@H](C(=O)N[C@@H](CC(N)=O)C(=O)N[C@@H](Cc1c[nH]c2ccccc12)C(=O)N[C@@H](CC(C)C)C(=O)N[C@@H](CC(C)C)C(=O)N[C@@H](CC(=O)O)C(=O)NCC(=O)NCC(=O)N1CCC[C@H]1C(=O)N[C@@H](CO)C(=O)N[C@@H](CO)C(=O)NCC(=O)N[C@@H](C)C(=O)N1CCC[C@H]1C(=O)N1CCC[C@H]1C(=O)N1CCC[C@H]1C(=O)N[C@@H](CO)C(N)=O)C(C)C)[C@@H](C)CC)C(=O)O)C(=O)O

Key:
Assay in all cases: cell-based or functional assay
[1] = biological target: T2, glucagon receptor (UniProt P47871 26-477, limits assumed)
[2] = biological target: T3, GLP-1 receptor (UniProt P43220 24-463, limits assumed)
[3] = biological target: T1, GIP receptor
[4] = biological target: T2, glucagon receptor; remark: listed apart in the source
[5] = biological target: T3, GLP-1 receptor; remark: listed apart in the source
[6] = biological target: T1, GIP receptor; remark: listed apart in the source
[7] = biological target: T2, glucagon receptor; remark: listed apart in the source
[8] = biological target: T3, GLP-1 receptor; remark: listed apart in the source
[9] = biological target: T2, glucagon receptor; remark: listed apart in the source
[10] = biological target: T3, GLP-1 receptor; remark: listed apart in the source
[11] = biological target: T1, GIP receptor; remark: listed apart in the source

T2 sequence (P47871 26-477 limits assumed): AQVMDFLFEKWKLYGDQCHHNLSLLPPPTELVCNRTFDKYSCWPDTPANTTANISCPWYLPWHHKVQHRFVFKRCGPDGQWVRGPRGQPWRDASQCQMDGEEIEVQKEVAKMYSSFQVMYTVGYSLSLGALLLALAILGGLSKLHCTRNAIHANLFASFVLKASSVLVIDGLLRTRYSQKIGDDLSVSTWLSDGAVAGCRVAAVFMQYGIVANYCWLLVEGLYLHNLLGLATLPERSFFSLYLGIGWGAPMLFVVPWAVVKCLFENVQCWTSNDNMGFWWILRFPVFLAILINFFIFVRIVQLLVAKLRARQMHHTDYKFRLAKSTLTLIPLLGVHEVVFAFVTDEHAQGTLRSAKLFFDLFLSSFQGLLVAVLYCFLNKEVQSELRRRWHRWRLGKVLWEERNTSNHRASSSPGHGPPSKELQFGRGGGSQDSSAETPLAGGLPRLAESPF

Binder | EC50 (cAMP reporter) [1] [pM] | relative activity (to native hormone) [1] [%] | EC50 (cAMP reporter) [2] [pM] | relative activity (to native hormone) [2] [%] | EC50 (cAMP reporter) [3] [pM] | relative activity (to native hormone) [3] [%] | EC50 (cAMP reporter) [4] [pM] | EC50 (cAMP reporter) [5] [pM] | EC50 (cAMP reporter) [6] [pM] | also measured
B1 | 9.6 | 797 | 2.2 | 717 | 3.9 | 425 | – | – | – | –
B2 | – | – | – | – | – | – | 5.6 | 2.7 | 17 | –
B3 | – | – | – | – | – | – | 10.5 | 3.1 | 21 | –
B4 | – | – | 7 | – | 18.5 | – | – | – | – | –
B5 | – | – | – | – | – | – | – | – | – | EC50 (cAMP reporter) [7]: 7 pM; EC50 (cAMP reporter) [8]: 4 pM
B6 | – | – | – | – | – | – | – | – | – | EC50 (cAMP reporter) [9]: 3740 pM; relative activity (to native hormone) [9]: 0.8%; EC50 (cAMP reporter) [10]: 7.8 pM; relative activity (to native hormone) [10]: 315%; EC50 (cAMP reporter) [11]: 3.1 pM; relative activity (to native hormone) [11]: 434%
B7 | 7.7 | 987 | 2.7 | 582 | 6.1 | 273 | – | – | – | –
B8 | 4040 | – | – | – | 5.4 | – | – | – | – | EC50 (cAMP reporter) [9]: 3140 pM; EC50 (cAMP reporter) [11]: 3.3 pM
B9 | 108 | 70.8 | 6 | 258 | 32.7 | 50.6 | – | – | – | –
B10 | – | – | – | – | – | – | 73 | 8 | 5 | –
